Key:
CyPPO17 = assay: PPO enzyme activity of MBP-fused CyPPO17 wild type and variants; type: biochemical, Thermosynechococcus sp. NK55a; conditions: PPO enzyme activity relative to wild type; MBP-fused protein, 50 μM protoporphyrinogen IX, room temperature, 30 min
Protocol: (§1) Thus, PPO proteins of wild type and variants were expressed as fused to MBP and were used for experiments.
(§2) The following process for purification of PPO protein was performed in a 4° C. cold room. Amylose resin (NEB) was packed to 1.5×15 cm column (Bio-Rad, Econo Columns 1.5×15 cm, glass chromatography column, max. vol), and the obtained protein extracts were loaded to the column at a flow rate of 0.2 ml/min. The column was washed with 3 column volumes of buffer and the presence of protein in the washing solution was examined. When the protein was no longer detected, the washing procedure was terminated. Then, the MBP-PPO protein was eluted with approximately 2 column volumes of buffer containing 20 mM maltose. The protein concentration of each eluent was determined and the elution was stopped when the protein was no longer detected. Ten microliter of each fraction was investigated for protein quantification and SDS-PAGE analysis. The highly pure fractions of PPO protein variants were used for the enzyme assay.
(§3) Since protoporphyrinogen IX, a substrate of PPO protein, was not commercially available, it was chemically synthesized in the laboratory. Overall process was performed in dark under nitrogen stream. […] of protoporphyrin IX was dissolved in 20 ml of 20% (v/v) EtOH, and stirred under dark condition for 30 minutes. The obtained protoporphyrin IX solution was put into a 15 ml screw tube in an amount of 800 μl, and flushed with nitrogen gas for 5 minutes. To this, 1.5 g of sodium amalgam was added and vigorously shaken for 2 minutes. The lid was opened to exhaust hydrogen gas in the tube. Thereafter, the lid was closed and incubated for 3 minutes. The protoporphyrinogen IX solution was filtered using syringe and cellulose membrane filter. […] To determine the enzyme activity of PPO protein, a reaction mixture was prepared with the following composition (based on 10 ml): 50 mM Tris-Cl (pH 8.0); 50 mM NaCl; 0.04% (v/v) Tween 20; 40 mM glucose (0.072 g); 5 units glucose oxidase (16.6 mg); and 10 units catalase (1 μl).
(§4) Hundred and eighty microliters of a reaction mixture containing the purified PPO protein were placed in 96 well plates and 20 μl of […] were added. […] The reaction proceeded at room temperature for 30 min and the fluorescence of protoporphyrin IX was measured using Microplate reader (Sense, Hidex) (excitation: 405 nm; emission: 633 nm). […] To this, 2.7 N HCl was added, and the absorbance at 408 nm was measured. A standard curve was generated using standard protoporphyrin IX, and PPO activity was measured by calibration of protoporphyrin IX using the standard curve of protoporphyrin IX.
(§5) Activities of variants were presented relatively compared to that of wild type.

CyPPO16 [1] = assay: PPO enzyme activity of MBP-fused CyPPO16 wild type and variants; type: biochemical, Spirulina subsalsa; conditions: PPO enzyme activity relative to wild type; MBP-fused protein, 50 μM protoporphyrinogen IX, room temperature, 30 min
Protocol: as §1, §2, §3, §4, §5

CyPPO16 [2] = assay: Herbicide tolerance test of CyPPO16 wild type and variants in PPO-deficient E. coli BT3(ΔPPO); type: cell-based, Spirulina subsalsa; conditions: BT3(ΔPPO) transformants, two or more amino acid mutations, dark; for Herbicide tolerance, tiafenacil: 37° C., 16 to 20 hours, relative to wild type at highest concentration (50, 200 μM); for Herbicide tolerance, flumioxazin: relative to wild type at highest concentration (25, 50 μM); for Herbicide tolerance, sulfentrazone: relative to wild type at highest concentration (2000, 4000 μM)
Protocol: The mutated CyPPO gene obtained from the Example 2 was transformed to BT3 (ΔPPO) strain which is deficient of PPO activity and cultured in LB media with PPO-inhibiting herbicide, thereby examining whether growth of transformed BT3 was not inhibited.
BT3 competent cells were transformed with the pET303-CyPPO16 and pET303-CyPPO17 plasmids and those with a mutation(s) constructed in Example 2 respectively, and were cultured in LB agar media containing carbenicillin (Gold Biotechnology, Co., Ltd.).
Single colony of E. coli transformed with each CyPPO gene was cultured in 3 ml of LB broth containing carbenicillin overnight, and then was subcultured until absorbance (0D600) reached 0.5 to 1. Then, it was diluted with LB broth to OD600=0.5. Again, the diluted solution was serially diluted 4 times by a factor of one tenth.
The LB agar media (LB 25 g/l, Bacto agar 15 g/l) containing carbenicillin (100 μg/ml) and 0 to 4,000 μM of various herbicides dissolved in DMSO was prepared. Next, 10 μl of each diluted solution was dropped on the plate and cultured at 37° C. under light (Tables 7 and 9, FIGS. 2 to 6, and 18 to 22) or dark (Tables 8 and 10, FIGS. 7 to 17, and 23 to 33) for 16 to 20 hours. Then, extent of tolerance was evaluated.
The extent of herbicide tolerance of the mutated genes was evaluated by comparing that of mutated genes with that of wild type. The relative tolerance was represented with “+” as a factor of 10 times. Evaluation result was listed in Tables 7 to10 and FIGS. 2 to 33:
In Tables 7 to 10, tolerance level was presented as of tolerance of wild type and of variants equivalent to that of wild type, and was done as ‘+’ per each 10 fold resistance until ‘+++++’ as maximal resistance. (Tolerance level was evaluated by relative growth level of variants to that of wild type in the media containing highest concentration of herbicide; ‘+’=1-9 fold higher tolerance, ‘++’=10-99 fold higher tolerance, ‘+++’=100-999 fold higher tolerance, ‘++++’=1,000-9,999 fold higher tolerance, ‘+++++’=more than 10,000 fold higher tolerance)
The concentrations of herbicides were written above the photographs of tolerance test. A dilution series (0D600=0.5, 0.05, 0.005, 0.0005, 0.00005) was made and spotted on LB agar plates supplemented with herbicides.

Molecule	Activity (%) (CyPPO17)	Activity (%) (CyPPO16 [1])	Herbicide tolerance, tiafenacil (CyPPO16 [2])	Herbicide tolerance, flumioxazin (CyPPO16 [2])	Herbicide tolerance, sulfentrazone (CyPPO16 [2])
V304M: CyPPO17 variant (protein, Synthetic (Protoporphyrinogen IX oxidase (CyPPO17) of Thermosynechococcus sp. NK55a), CyPPO17 variant) MEVDVAIVGGGLSGLSVAWRLQQSAPQYSGVLLEASDRLGGNITTQGAEGFVWELGPNSFAPTPALLQLIAEVGLHSELIRGDRHLPRYIYWRGELYPLEPTRPLALATSNLLSPWGKVRAALGALGFVPPYLGSGDESVNSFFRRHLGQEVAERLVAPFVSGVYAGDPQQLSAAAAFRRIAQLEKLGGGLIAGALRLRRQQPPKPRPPAEVQMRPGELGSFKEGLAALPRAIAQQLKAPVHLQTPVEAITPEPNGGYLLRSGEQTWQARSVVLATPAYQTAALVAPFQPAIARVLAAIPYPTMACVVLAYPAGLGRSVRPGFGVLIPRGQGIRTLGTIWSSCLFPQRTPAGWQVFTSFIGGATDPDLASLREEAIVQQVQQDLTRLLDLPAAKARLLGMKVWRRAIPQYLVGYPQQWQQVTHALSQTPGLFLCSNYAEGVALGDRVEHGNRTAAAVAAYLSGGQS	82	–	–	–	–
F323V: CyPPO17 variant (protein, Synthetic (Protoporphyrinogen IX oxidase (CyPPO17) of Thermosynechococcus sp. NK55a), CyPPO17 variant) MEVDVAIVGGGLSGLSVAWRLQQSAPQYSGVLLEASDRLGGNITTQGAEGFVWELGPNSFAPTPALLQLIAEVGLHSELIRGDRHLPRYIYWRGELYPLEPTRPLALATSNLLSPWGKVRAALGALGFVPPYLGSGDESVNSFFRRHLGQEVAERLVAPFVSGVYAGDPQQLSAAAAFRRIAQLEKLGGGLIAGALRLRRQQPPKPRPPAEVQMRPGELGSFKEGLAALPRAIAQQLKAPVHLQTPVEAITPEPNGGYLLRSGEQTWQARSVVLATPAYQTAALVAPFQPAIARVLAAIPYPTVACVVLAYPAGLGRSVRPGVGVLIPRGQGIRTLGTIWSSCLFPQRTPAGWQVFTSFIGGATDPDLASLREEAIVQQVQQDLTRLLDLPAAKARLLGMKVWRRAIPQYLVGYPQQWQQVTHALSQTPGLFLCSNYAEGVALGDRVEHGNRTAAAVAAYLSGGQS	16	–	–	–	–
V305M + F360M: CyPPO16 variant (protein, Synthetic (Protoporphyrinogen IX oxidase (CyPPO16) of Spirulina subsalsa), CyPPO16 variant) MLDSLIVGAGISGLSAAHTLQKQQTQFLVTESQGRVGGNITTNRQGDYLWEEGPNSFAPTEDLLRLAVEVGLKEDLVFADRRLPRFVYWNQQLHPVPMSPPAALKTQLLSEAGKWRAALGALGFVGGLVGREEETVRQFFTRHLGTEVTERLVAPFVSGVYAGDVDQLSAQAAFRRVFEFAQLGGGLAAGGILARRQAPPKAPPDPSLPETKTGQLGSFREGLEMLPRAIASQLGDRLKLQWRLTHLEITPQQTYLAHFNTPDGPQQIATRTLILTTPAPITADLLKPLTPALHGVLKEIYYPPMACVVLAYPRAASARPLEGFGHLIPRNQGIRTLGTIWSSCLFPGRTPEGEHLLTNMIGGATDPGIAQLDPEEIAQAVHQDLCKILIRPEFTPKILAVRLWKQAIPQYTLGHLQRLATLEQELSKFPGLHILANYTDGVALGDCVKRGVAVAQKIRSRE	–	35	+++ (‘+++’=100-999 fold higher tolerance)	++++ (‘++++’=1,000-9,999 fold higher tolerance)	+ (‘+’=1-9 fold higher tolerance)
L327T + F360M: CyPPO16 variant (protein, Synthetic (Protoporphyrinogen IX oxidase (CyPPO16) of Spirulina subsalsa), CyPPO16 variant) MLDSLIVGAGISGLSAAHTLQKQQTQFLVTESQGRVGGNITTNRQGDYLWEEGPNSFAPTEDLLRLAVEVGLKEDLVFADRRLPRFVYWNQQLHPVPMSPPAALKTQLLSEAGKWRAALGALGFVGGLVGREEETVRQFFTRHLGTEVTERLVAPFVSGVYAGDVDQLSAQAAFRRVFEFAQLGGGLAAGGILARRQAPPKAPPDPSLPETKTGQLGSFREGLEMLPRAIASQLGDRLKLQWRLTHLEITPQQTYLAHFNTPDGPQQIATRTLILTTPAPITADLLKPLTPALHGVLKEIYYPPVACVVLAYPRAASARPLEGFGHTIPRNQGIRTLGTIWSSCLFPGRTPEGEHLLTNMIGGATDPGIAQLDPEEIAQAVHQDLCKILIRPEFTPKILAVRLWKQAIPQYTLGHLQRLATLEQELSKFPGLHILANYTDGVALGDCVKRGVAVAQKIRSRE	–	21	++++ (‘++++’=1,000-9,999 fold higher tolerance)	++++ (‘++++’=1,000-9,999 fold higher tolerance)	++ (‘++’=10-99 fold higher tolerance)
A162C + L327T + F360M: CyPPO16 variant (protein, Synthetic (Protoporphyrinogen IX oxidase (CyPPO16) of Spirulina subsalsa), CyPPO16 variant) MLDSLIVGAGISGLSAAHTLQKQQTQFLVTESQGRVGGNITTNRQGDYLWEEGPNSFAPTEDLLRLAVEVGLKEDLVFADRRLPRFVYWNQQLHPVPMSPPAALKTQLLSEAGKWRAALGALGFVGGLVGREEETVRQFFTRHLGTEVTERLVAPFVSGVYCGDVDQLSAQAAFRRVFEFAQLGGGLAAGGILARRQAPPKAPPDPSLPETKTGQLGSFREGLEMLPRAIASQLGDRLKLQWRLTHLEITPQQTYLAHFNTPDGPQQIATRTLILTTPAPITADLLKPLTPALHGVLKEIYYPPVACVVLAYPRAASARPLEGFGHTIPRNQGIRTLGTIWSSCLFPGRTPEGEHLLTNMIGGATDPGIAQLDPEEIAQAVHQDLCKILIRPEFTPKILAVRLWKQAIPQYTLGHLQRLATLEQELSKFPGLHILANYTDGVALGDCVKRGVAVAQKIRSRE	–	17	+++++ (‘+++++’=more than 10,000 fold higher tolerance)	+++++ (‘+++++’=more than 10,000 fold higher tolerance)	++++ (‘++++’=1,000-9,999 fold higher tolerance)

From US11219221B2 (FarmHannong Co., Ltd., priority 2017, dated 2022)
